Assay results reported in paper PMC5710141 (Genes & Development, 2017).

What was measured:
Mif2 DHBD = Mif2 DHBD (Saccharomyces cerevisiae (budding yeast), UniProt P35201 256-365); test: analytical ultracentrifugation
Mif2c (Mif2 core) dimer = Mif2c (Mif2 core) dimer (Saccharomyces cerevisiae (budding yeast), UniProt P35201 256-530); test: analytical ultracentrifugation
AUC = molecular target: the molecule itself; test: AUC

B1: 20-bp AT-rich dsDNA (dsDNA)
DNA 1: AAAGTAAAAAATAAAAAGTA
DNA 2: TACTTTTTATTTTTTACTTT
B1: binds (Mif2 DHBD).

B2: 40-bp AT-rich dsDNA (dsDNA)
DNA 1: AAAGTAAAAAATAAAAAGTAGTTTATTTTTAAAAAATAAA
DNA 2: TTTATTTTTTAAAAATAAACTACTTTTTATTTTTTACTTT
B2: binds (Mif2c (Mif2 core) dimer).

B3: Mif2 core (Mif2c) dimer, Mif2 residues 256-530 (domain or fragment, budding yeast, UniProt P35201 256-530, looked up)
chain: NTNDNEDDYIRRQASDVVRTDSIIDRNGLRKSTRVKVAPLQYWRNEKIVYKRKSNKPVLDIDKIVTYDESEDEEEILAAQRRKKQKKKPTPTRPYNYVPTGRPRGRPKKDPNAKENLIPEDPNEDIIERIESGGIENGEWLKHGILEANVKISDTKEETKDEIIAFAPNLSQTEQVKDTKDENFALEIMFDKHKEYFASGILKLPAISGQKKLSNSFRTYITFHVIQGIVEVTVCKNKFLSVKGSTFQIPAFNEYAIANRGNDEAKMFFVQVTVS
B3 was tested, and the “stoichiometry N” value (AUC) was 2.
